Measured values published in patent US20180284135A1.

Target: T1, intact recombinant human POSTN (periostin, SEQ ID NO: 1)
T1 chain: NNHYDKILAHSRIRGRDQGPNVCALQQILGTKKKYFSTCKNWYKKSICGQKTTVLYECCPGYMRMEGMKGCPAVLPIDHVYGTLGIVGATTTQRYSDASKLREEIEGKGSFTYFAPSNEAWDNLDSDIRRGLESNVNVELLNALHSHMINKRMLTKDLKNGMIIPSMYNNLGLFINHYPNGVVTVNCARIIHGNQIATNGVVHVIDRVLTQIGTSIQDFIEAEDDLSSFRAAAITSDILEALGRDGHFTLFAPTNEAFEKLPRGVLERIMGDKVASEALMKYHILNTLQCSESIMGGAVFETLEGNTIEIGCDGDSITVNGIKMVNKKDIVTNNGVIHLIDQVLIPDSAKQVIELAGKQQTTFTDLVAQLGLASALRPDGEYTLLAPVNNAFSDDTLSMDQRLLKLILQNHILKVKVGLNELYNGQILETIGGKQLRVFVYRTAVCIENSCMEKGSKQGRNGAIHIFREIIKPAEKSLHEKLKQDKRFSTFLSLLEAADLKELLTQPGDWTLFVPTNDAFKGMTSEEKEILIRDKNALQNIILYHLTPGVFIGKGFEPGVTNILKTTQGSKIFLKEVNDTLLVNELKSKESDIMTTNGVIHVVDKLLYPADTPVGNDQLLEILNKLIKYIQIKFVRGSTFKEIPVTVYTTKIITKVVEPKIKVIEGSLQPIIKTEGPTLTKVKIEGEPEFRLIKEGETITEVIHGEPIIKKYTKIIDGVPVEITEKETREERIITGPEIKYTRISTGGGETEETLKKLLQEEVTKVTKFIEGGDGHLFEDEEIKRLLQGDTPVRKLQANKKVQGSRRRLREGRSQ

B1: human CatK of SEQ ID NO: 19 (Cathepsin K) (protein)
chain: APDSVDYRKKGYVTPVKNQGQCGSCWAFSSVGALEGQLKKKTGKLLNLSPQNLVDCVSENDGCGGGYMTNAFQYVQKNRGIDSEDAYPYVGQEESCMYNPTGKAAKCRGYREIPEGNEKALKRAVARVGPVSVAIDASLTSFQFYSKGVYYDESCNSDNLNHAVLAVGYGIQKGNKHWIIKNSWGENWGNKGYILMARNKNNACGIANLASFPKM
B1 was tested, and the “CatK digestion of human recombinant POSTN (SDS-PAGE, LC-MS/MS)” value was “human POSTN is a substrate to CatK-dependent enzymatic digestion that is generating large amount of several peptides”.
